Results reported in patent US20240092941A1 (FRED HUTCHINSON CANCER CENTER, published 2024).

B1: Nb14 WT (VHH)
VHH: QVKLVQSGGGLVQTGGSLRLSCAASEITFDMYSMGWYREAPGKARDAVASITNRGNTYYADSVKGRFTISRDNAKKTMYLQMNSLKPEDTAVYYCNVYRTGFSDYWGQGTQVTVSS
B2: Nb11 WT (VHH)
VHH: QVKLVQSGGGLVQAGGSLRLSCAASGSIFSSASMGWYRQAPGKPREQVASITRDGNTYYEDDVKGRFTISRDNARSTGYLQMNSLTPEDTGVYYCNVYQLGFYDKWGQGTQVIVSS

Target: T1, soluble ROR1 ectodomain (UniProt Q01973 30-406, limits assumed)
T1 construct: extracellular domain
Assay: method not stated in the legend of FIG. 1

T1 sequence (Q01973 30-406 limits assumed): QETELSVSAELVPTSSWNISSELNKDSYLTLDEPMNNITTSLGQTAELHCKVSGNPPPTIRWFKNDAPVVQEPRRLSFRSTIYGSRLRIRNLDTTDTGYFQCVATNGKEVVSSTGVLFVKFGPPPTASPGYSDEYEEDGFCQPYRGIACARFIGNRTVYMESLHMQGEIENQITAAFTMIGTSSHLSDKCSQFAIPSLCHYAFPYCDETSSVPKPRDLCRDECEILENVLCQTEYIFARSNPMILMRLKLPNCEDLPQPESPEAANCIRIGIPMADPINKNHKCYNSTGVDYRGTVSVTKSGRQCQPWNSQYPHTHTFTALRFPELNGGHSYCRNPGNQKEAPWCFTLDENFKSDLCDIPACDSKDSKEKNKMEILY

| Binder | Kd [nM] |
| --- | --- |
| B1 | 2 |
| B2 | 2 |
